Laboratory results reported in publication PMC4131848.

Biological target: putative N-acetyltransferase from S. aureus subsp. aureus Mu50 (SaGNAT) (Staphylococcus aureus subsp. aureus Mu50)
Test: SEC; Superdex 200, 50 mM Tris pH 8.0, 125 mM NaCl; elution compared with theoretical elution volumes for monomer, dimer and trimer

stoichiometry N: 2
Substance: putative N-acetyltransferase from S. aureus subsp. aureus Mu50 (SaGNAT) (enzyme)
